According to article PMC4335062, “Data-Driven Prediction and Design of bZIP Coiled-Coil Interactions” (PLoS Computational Biology, 2015):
Where “and” joins values, the source holds several entries; their conditions need not be identical. Equal entries are not always repeated. One block for each molecule: values may come before it. Where no end group is shown, it is not given here.

Columns and labels:
ATF4 = target: T1, ATF4 (Homo sapiens, UniProt P18848); assay: Competition binding assay, unlabeled design vs FITC-labeled design and TAMRA-labeled ATF4; conditions: unlabeled design mixed with FITC-labeled design and TAMRA-labeled ATF4
T1 construct: made in house
T1 sequence (P18848 278-341 limits assumed): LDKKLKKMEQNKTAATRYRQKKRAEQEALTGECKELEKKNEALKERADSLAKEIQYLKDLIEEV
Description: In the competition form of the assay, a FRET pair was made by mixing 10 nM of the donor-labeled peptide with a specified concentration of the acceptor-labeled peptide in 1 mM TCEP-HCl, and 20 μL of this solution was added to the wells after unlabeled design was titrated in 2-fold dilutions over the wells to a final concentration ranging from 0 to 2.5 μM. The amount of acceptor used varied for each curve, taking into account the Kd of the FRET complex in order to obtain a good lower baseline for fitting purposes. Samples were equilibrated for one hour before reading the plates; repeated reading of the plates over several hours gave no change in signal.
For the competition experiments, the IC50 was determined in MATLAB by fitting the binding data to the equation signal=a+b−a/(1+x/c)^H , where a and b are the lower and upper baselines, c is the IC50 value, x is the inhibitor concentration, and the Hill coefficient H was set to 1. Ki values were calculated as in Fu et al..

JUN/FOS heterodimer = target: T2, JUN/FOS heterodimer (Homo sapiens, UniProt P05412); assay: Competition FRET assay; assay type: binding
T2 construct: made in house
Description: The amount of acceptor used varied for each curve, taking into account the Kd of the FRET complex in order to obtain a good lower baseline for fitting purposes. Samples were equilibrated for one hour before reading the plates; repeated reading of the plates over several hours gave no change in signal. For the competition experiments, the IC50 was determined in MATLAB by fitting the binding data to the equation signal=[…] , where a and b are the lower and upper baselines, c is the IC50 value, x is the inhibitor concentration, and the Hill coefficient H was set to 1. Ki values were calculated as in Fu et al..

[1] = target: the molecule itself; assay: FRET or BRET; direct-binding FRET of the designed peptide with itself (row 'homodimer'; dimer to monomers); acceptor-labelled design titrated into donor-labelled design by note 1 of the tables; 37 °C
ATF2 (human) = ATF2 (human) (UniProt P15336); assay: FRET or BRET; direct-binding FRET in 384-well plates; rhodamine-labelled design (acceptor) titrated 0 to 1 uM into 10 nM fluorescein-labelled bZIP (donor); 150 mM KCl, 50 mM potassium phosphate pH 7.4, 0.1% Tween-20, 0.1% BSA; 4 °C
Sequence of ATF2 (human) (P15336 whole entry): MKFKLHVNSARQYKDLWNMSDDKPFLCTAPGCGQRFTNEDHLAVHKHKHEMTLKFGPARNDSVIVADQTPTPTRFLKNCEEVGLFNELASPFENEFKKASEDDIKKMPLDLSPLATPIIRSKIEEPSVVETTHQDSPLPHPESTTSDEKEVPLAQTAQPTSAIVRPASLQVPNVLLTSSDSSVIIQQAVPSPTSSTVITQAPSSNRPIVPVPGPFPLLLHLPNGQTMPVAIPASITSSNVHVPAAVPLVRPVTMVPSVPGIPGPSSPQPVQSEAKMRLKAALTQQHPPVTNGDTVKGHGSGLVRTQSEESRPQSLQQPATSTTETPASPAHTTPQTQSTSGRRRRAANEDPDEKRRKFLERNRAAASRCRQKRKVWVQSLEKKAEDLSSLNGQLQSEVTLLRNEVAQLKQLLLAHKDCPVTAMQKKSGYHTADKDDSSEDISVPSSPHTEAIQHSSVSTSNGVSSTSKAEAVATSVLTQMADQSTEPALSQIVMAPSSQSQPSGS

ATF4 (human) [2] = target: ATF4 (human) (UniProt P18848); assay: as above
Sequence of ATF4 (human) (P18848 whole entry): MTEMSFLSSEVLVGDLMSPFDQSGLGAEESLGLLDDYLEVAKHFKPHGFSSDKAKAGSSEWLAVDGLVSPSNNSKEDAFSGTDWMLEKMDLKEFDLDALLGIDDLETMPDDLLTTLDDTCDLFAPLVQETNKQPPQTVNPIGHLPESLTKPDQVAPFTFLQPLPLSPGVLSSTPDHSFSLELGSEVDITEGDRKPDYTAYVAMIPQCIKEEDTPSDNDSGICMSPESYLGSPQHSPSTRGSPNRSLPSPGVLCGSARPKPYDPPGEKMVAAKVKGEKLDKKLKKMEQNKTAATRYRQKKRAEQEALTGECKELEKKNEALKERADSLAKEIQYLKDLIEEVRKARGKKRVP

ATF5 (human) = ATF5 (human) (UniProt Q9Y2D1); assay: as above
Sequence of ATF5 (human) (Q9Y2D1 whole entry): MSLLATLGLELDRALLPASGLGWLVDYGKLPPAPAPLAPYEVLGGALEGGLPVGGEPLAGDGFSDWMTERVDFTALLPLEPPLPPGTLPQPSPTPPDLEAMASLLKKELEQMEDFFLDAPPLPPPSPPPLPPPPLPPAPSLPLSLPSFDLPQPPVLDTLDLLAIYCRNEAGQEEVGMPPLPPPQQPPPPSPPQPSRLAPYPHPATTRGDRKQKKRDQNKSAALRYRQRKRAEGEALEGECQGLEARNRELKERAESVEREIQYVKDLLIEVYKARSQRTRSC

NFE2L1 = NFE2L1 (Homo sapiens, UniProt Q14494); assay: as above
Sequence of NFE2L1 (Q14494 whole entry): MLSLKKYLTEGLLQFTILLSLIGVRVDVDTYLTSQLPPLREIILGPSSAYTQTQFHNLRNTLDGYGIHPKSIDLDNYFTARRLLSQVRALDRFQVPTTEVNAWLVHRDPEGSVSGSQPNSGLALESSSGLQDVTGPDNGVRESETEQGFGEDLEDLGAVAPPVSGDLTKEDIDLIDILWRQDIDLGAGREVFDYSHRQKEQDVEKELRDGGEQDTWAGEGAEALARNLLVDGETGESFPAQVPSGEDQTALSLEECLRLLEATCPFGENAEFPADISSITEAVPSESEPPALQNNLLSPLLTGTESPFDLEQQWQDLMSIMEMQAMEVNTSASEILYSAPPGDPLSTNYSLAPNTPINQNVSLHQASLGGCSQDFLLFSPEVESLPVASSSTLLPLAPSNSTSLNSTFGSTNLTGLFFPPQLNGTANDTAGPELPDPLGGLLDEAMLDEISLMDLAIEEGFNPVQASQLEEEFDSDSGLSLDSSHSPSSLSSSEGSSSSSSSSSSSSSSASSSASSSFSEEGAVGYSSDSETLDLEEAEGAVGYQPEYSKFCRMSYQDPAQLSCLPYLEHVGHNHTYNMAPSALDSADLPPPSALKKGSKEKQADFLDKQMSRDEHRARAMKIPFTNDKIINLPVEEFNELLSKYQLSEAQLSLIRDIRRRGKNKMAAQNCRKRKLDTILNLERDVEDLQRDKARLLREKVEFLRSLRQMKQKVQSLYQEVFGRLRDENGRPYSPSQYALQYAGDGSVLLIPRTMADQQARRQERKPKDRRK

ATF4 (human) [3] = target: ATF4 (human) (UniProt P18848); assay: FRET or BRET; direct-binding FRET in 384-well plates; rhodamine-labelled design (acceptor) titrated 0 to 1 uM into 10 nM fluorescein-labelled bZIP (donor); 150 mM KCl, 50 mM potassium phosphate pH 7.4, 0.1% Tween-20, 0.1% BSA; 37 °C
ATF4 (human) [4] = target: ATF4 (human) (UniProt P18848); assay: FRET or BRET; direct-binding FRET in 384-well plates; rhodamine-labelled design (acceptor) titrated 0 to 1 uM into 10 nM fluorescein-labelled bZIP (donor); 150 mM KCl, 50 mM potassium phosphate pH 7.4, 0.1% Tween-20, 0.1% BSA; 23 °C
MAFF (human) = MAFF (human) (UniProt Q9ULX9); assay: as above
Sequence of MAFF (human) (Q9ULX9 whole entry): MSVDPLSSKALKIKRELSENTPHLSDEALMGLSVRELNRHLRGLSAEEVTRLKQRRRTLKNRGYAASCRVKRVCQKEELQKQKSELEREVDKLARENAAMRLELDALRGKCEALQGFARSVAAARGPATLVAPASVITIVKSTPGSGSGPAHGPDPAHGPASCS

NFE2 (human) [5] = target: NFE2 (human) (UniProt Q16621); assay: as above
Sequence of NFE2 (human) (Q16621 whole entry): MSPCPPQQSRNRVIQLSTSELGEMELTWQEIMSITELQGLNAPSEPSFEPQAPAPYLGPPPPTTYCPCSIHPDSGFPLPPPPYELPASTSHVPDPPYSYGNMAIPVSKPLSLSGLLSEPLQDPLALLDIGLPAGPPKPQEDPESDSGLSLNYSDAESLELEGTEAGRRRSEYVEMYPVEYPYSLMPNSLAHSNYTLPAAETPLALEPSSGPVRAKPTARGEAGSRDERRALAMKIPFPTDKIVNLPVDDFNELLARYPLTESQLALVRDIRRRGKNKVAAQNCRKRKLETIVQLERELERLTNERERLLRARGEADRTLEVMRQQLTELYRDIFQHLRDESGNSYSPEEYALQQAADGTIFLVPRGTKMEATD

NFE2 (human) [6] = target: NFE2 (human) (UniProt Q16621); assay: FRET or BRET; direct-binding FRET in 384-well plates; rhodamine-labelled design (acceptor) titrated 0 to 1 uM into 10 nM fluorescein-labelled bZIP (donor); 150 mM KCl, 50 mM potassium phosphate pH 7.4, 0.1% Tween-20, 0.1% BSA; 37 °C
[7] = target: ATF5-d1 labeled at the C-terminus; assay: FRET or BRET; direct-binding FRET of the designed peptide with itself (row 'homodimer'; dimer to monomers); acceptor-labelled design titrated into donor-labelled design by note 1 of the tables; 4 °C
[8] = target: ATF5-d1 labeled at the C-terminus; assay: FRET or BRET; direct-binding FRET of the designed peptide with itself (row 'homodimer'; dimer to monomers); acceptor-labelled design titrated into donor-labelled design by note 1 of the tables; 23 °C
CREB1 (human) = CREB1 (human) (UniProt P16220); assay: FRET or BRET; direct-binding FRET in 384-well plates; rhodamine-labelled design (acceptor) titrated 0 to 1 uM into 10 nM fluorescein-labelled bZIP (donor); 150 mM KCl, 50 mM potassium phosphate pH 7.4, 0.1% Tween-20, 0.1% BSA; 37 °C
Sequence of CREB1 (human) (P16220 whole entry): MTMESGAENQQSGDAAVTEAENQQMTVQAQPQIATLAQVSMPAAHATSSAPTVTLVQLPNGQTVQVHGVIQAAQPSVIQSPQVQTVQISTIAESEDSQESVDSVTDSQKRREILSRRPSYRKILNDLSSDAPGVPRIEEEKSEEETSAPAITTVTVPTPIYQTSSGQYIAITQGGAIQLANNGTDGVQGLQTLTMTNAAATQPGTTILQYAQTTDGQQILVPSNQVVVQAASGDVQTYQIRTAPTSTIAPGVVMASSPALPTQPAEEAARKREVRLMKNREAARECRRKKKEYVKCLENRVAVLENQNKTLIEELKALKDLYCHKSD

CREB3L1 (human) = CREB3L1 (human) (UniProt Q96BA8); assay: as above
Sequence of CREB3L1 (human) (Q96BA8 whole entry): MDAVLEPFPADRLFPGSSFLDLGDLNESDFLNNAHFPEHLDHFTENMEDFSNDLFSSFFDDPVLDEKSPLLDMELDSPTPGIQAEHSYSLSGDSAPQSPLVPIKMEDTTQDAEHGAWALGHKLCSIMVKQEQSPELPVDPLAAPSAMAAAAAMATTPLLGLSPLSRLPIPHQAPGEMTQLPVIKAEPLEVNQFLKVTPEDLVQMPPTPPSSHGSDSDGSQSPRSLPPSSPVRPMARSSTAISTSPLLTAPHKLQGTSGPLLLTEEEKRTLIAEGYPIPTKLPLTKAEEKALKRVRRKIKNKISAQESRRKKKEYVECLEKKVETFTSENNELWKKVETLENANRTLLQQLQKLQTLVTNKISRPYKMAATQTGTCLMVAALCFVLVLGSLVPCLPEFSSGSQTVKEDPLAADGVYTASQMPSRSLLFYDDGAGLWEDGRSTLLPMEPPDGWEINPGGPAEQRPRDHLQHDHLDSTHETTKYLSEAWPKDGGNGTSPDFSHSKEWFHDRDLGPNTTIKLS

Molecule: NQIKTLRTRLSKLRKDNLQLEKDIANLERKAKDLRAEKEQLEYEL [ATF4-d1]
- Ki (ATF4): 48 nM

Molecule: SIAATLEKEEANLEKMNKKLAAEIESLLKEKDKLESVLNYHE [JUN-d1]
- IC50 (JUN/FOS heterodimer): 245 nM

B1: ATF4-d1 labeled at the C-terminus (designed binder)
chain: GESKEYKKGSGSNQIKTLRTRLSKLRKDNLQLEKDIANLERKAKDLRAEKEQLEYELGC
modifications: also: C59 label by assay: Rhodamine Red C2-maleimide or fluorescein-5-maleimide
notes: solubility linker after the His6 tag; added to the C-terminus for labeling; one molecule for the rhodamine- and the fluorescein-labelled form; the assay tells which label stood there; also called ATF4-d1-Rhodamine; ATF4-d1-FITC; source: E. coli RP3098, purified (Ni-NTA under denaturing conditions, reverse-phase HPLC)
- Kd [1]: 1820 nM and 1110 nM and 2520 nM
- Kd (ATF2 (human)): 1000 nM
- Kd (ATF4 (human) [2]): 1 nM
- Kd (ATF5 (human)): > 5000 nM
- Kd (NFE2L1): > 5 µM
- Kd (ATF4 (human) [3]): 11.3 nM and 9.9 nM and 6.8 nM
- Kd (ATF4 (human) [4]): 1 nM
- Kd (MAFF (human)): 623 nM
- Kd (NFE2 (human) [5]): > 5 µM
- Kd (NFE2 (human) [6]): 2920 nM

Continued, values first:

- Ki (ATF4): 6 nM
Molecule: KRIAYLRQRIAELRNENHVLESRIQRMEKEKDALQQDRDHLEYEL [ATF5-d1]

- Kd [7]: 1000 nM
- Kd [8]: 1000 nM
- Kd (ATF2 (human)): > 5000 nM
- Kd (ATF4 (human) [2]): 1 nM
- Kd (ATF5 (human)): 1.1 nM and 1.2 nM and 1 nM
- Kd (NFE2L1): > 5 µM
- Kd (ATF4 (human) [3]): 4.8 nM and 4 nM and 6 nM
- Kd (CREB1 (human)): 1000 nM
- Kd (CREB3L1 (human)): 1000 nM
- Kd (ATF4 (human) [4]): 1 nM
- Kd (MAFF (human)): > 5000 nM
- Kd (NFE2 (human) [5]): > 5 µM
- Kd (NFE2 (human) [6]): > 5000 nM
B2: ATF5-d1 labeled at the C-terminus (designed binder)
chain: GESKEYKKGSGSKRIAYLRQRIAELRNENHVLESRIQRMEKEKDALQQDRDHLEYELGC(Rhodamine Red C2‑maleimide)
modifications: not fully specified
